Measured values reported in patent publication US8772229B2, “Methods for synthesis and uses of inhibitors of ghrelin O-acyltransferase as potential therapeutic agents for obesity and diabetes” (The Johns Hopkins University, priority 2008, dated 2014).

Assays:
p300 HAT = target: T1, p300 HAT (Homo sapiens, UniProt Q09472); assay: Acetyltransferase specificity assay (α-KGDH coupled), p300; format: biochemical
T1 construct: Recombinant acetyltransferase domains and histone tail peptides were prepared as described previously (38-40); made in house
T1 sequence (Q09472 1287-1663 limits assumed): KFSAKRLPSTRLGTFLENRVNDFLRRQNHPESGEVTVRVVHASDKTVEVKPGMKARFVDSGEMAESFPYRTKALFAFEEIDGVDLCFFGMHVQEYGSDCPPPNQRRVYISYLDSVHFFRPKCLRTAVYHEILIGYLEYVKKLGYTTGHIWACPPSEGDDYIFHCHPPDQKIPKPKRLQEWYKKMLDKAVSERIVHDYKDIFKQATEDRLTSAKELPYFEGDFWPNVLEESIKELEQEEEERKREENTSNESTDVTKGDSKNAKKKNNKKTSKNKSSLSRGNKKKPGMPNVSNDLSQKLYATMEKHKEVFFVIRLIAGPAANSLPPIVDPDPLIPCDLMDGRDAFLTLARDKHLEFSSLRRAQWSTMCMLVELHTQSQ
Experimental: (§1) The specificity of GO-CoA-Tat with the acetyltransferases p300, PCAF, and AANAT was measured using an α-ketoglutarate dehydrogenase (α-KGDH) coupled spectrophotometric assay (37). Recombinant acetyltransferase domains and histone tail peptides were prepared as described previously (38-40). The production of CoASH by the acetyltransferase is coupled to the formation of NADH, which is monitored at 340 nm (ε340=6230 M^−1 cm^−1) in a Beckman DU-640 spectrophotometer. All reactions contain 200 μM thiamine pyrophosphate, 5 mM MgCl2, 1 mM DTT, 50 μg/mL BSA, 200 μM NAD, 2.4 mM α-ketoglutarate, 10 μM GO-CoA-Tat, and 50 μM acetyl-CoA. Reactions with p300 were performed in 100 mM HEPES, pH 7.9, and contain 0.1 units α-KGDH and 200 μM H4-15, a 15-mer peptide substrate based on the sequence of the histone H4 tail. p300 reactions are incubated at 30° C. prior to initiation with addition of 100 nM p300 and take place at 30° C. Reactions with PCAF are performed in 100 mM HEPES, pH 7.9, and contain 0.037 units α-KGDH and 100 μM H3-20, a 20-mer peptide substrate based on the sequence of the histone H3 tail. PCAF reactions are incubated at 30° C. for 10 minutes prior to initiation with addition of 100 nM PCAF and take place at 30° C. Reactions with AANAT are performed in 100 mM NH4OAc, pH 6.8, and contain 0.1 units α-KGDH and 200 μM tryptamine. […]

PCAF HAT = target: T2, PCAF HAT (Homo sapiens, UniProt Q92831); assay: Acetyltransferase specificity assay (α-KGDH coupled), PCAF; format: biochemical
T2 construct: Recombinant acetyltransferase domains and histone tail peptides were prepared as described previously (38-40); made in house
T2 sequence (Q92831 503-651 limits assumed): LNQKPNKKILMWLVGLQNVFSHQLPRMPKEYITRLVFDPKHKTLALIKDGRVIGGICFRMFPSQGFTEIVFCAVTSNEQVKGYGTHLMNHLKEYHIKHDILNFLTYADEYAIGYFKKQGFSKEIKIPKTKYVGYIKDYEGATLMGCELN
Experimental: as §1

[1] = target: T3, serotonin N-acetyltransferase (Ovis aries, UniProt Q29495); assay: Acetyltransferase specificity assay (α-KGDH coupled), AANAT; format: biochemical
T3 construct: Recombinant acetyltransferase domains and histone tail peptides were prepared as described previously (38-40); made in house
T3 sequence (Q29495 35-196 limits assumed): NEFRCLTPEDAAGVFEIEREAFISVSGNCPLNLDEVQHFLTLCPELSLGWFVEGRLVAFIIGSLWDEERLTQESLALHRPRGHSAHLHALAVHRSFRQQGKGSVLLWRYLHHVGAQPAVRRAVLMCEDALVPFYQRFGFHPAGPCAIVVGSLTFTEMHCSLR
Experimental: as §1

HEL cell = assay: Cell viability assay (LIVE/DEAD), HEL cells; format: cell-based, human; conditions: 10 μM, 24 hr incubation
Experimental: (§2) The viability of the HEL cell line and the human immortalized hepatocyte cell line HepG2 (ATCC, Manassas, Va.) treated with the varying concentrations of GO-CoA-Tat was determined using a LIVE/DEAD viability assay kit (Molecular Probes). […] were incubated with two probes, 2 μM calcein-AM (green color) for 30 min and 4 μM ethidium homodimer-1 (EtdD-1, bright red color) for 10 min, for intracellular esterase activity and plasma membrane integrity, respectively. Calcein-AM was excited using the 500 nm laser line, and the emitted fluorescence was detected through a 535 nm long-pass filter. EtdD-1 was excited using the 514 nm laser line, and the emitted fluorescence was detected through a 550 nm long-pass filter. Red fluorescent (EtdD-1) cells were counted as dead, and green fluorescent (Calcein-AM) were counted as viable. In cases of dual partial red and green staining, cells were counted as dead.

HEPG2 cell = assay: Cell viability assay (LIVE/DEAD), HepG2 cells; format: cell-based, human; conditions: 10 μM, 24 hr incubation
Experimental: as §2

[2] = Blood chemistries and blood cell counts after 12 days of treatment; format: in vivo, mice; conditions: 12 day treatment
From the text: To investigate the potential for GO-CoA-Tat induced generalized toxicity or organ damage as a source of weight loss, we assessed the blood chemistries and blood cell counts in the 12 day GO-CoA-Tat treated animals.

CCCCCCC(SCCNC(=O)CCNC(=O)[C@H](O)C(C)(C)COP(=O)(O)OP(=O)(O)OC[C@H]1O[C@@H](n2cnc3c(N)ncnc32)[C@H](O)[C@@H]1OP(=O)(O)O)C(=O)NC[C@H](NC(=O)[C@H](CO)NC(=O)CN)C(=O)N[C@@H](Cc1ccccc1)C(=O)N[C@@H](CC(C)C)C(=O)N[C@@H](CO)C(=O)N1CCC[C@H]1C(=O)N[C@@H](CCC(=O)O)C(=O)N[C@@H](Cc1c[nH]cn1)C(=O)N[C@@H](CCC(N)=O)C(=O)NCCCCCC(=O)N[C@@H](Cc1ccc(O)cc1)C(=O)NCC(=O)N[C@@H](CCCNC(=N)N)C(=O)N[C@@H](CCCCN)C(=O)N[C@@H](CCCCN)C(=O)N[C@@H](CCCNC(=N)N)C(=O)N[C@@H](CCCNC(=N)N)C(=O)N[C@@H](CCC(N)=O)C(=O)N[C@@H](CCCNC(=N)N)C(=O)N[C@@H](CCCNC(=N)N)C(=O)N[C@@H](CCCNC(=N)N)C(=O)O (some centres unmarked) [GO-CoA-Tat]
inhibition at 10 µM (p300 HAT): < 15%
inhibition at 10 µM (PCAF HAT): < 15%
inhibition at 10 µM [1]: < 15%
HEL cell viability (HEL cell): non-toxic
HEPG2 cell viability (HEPG2 cell): non-toxic
organ toxicity from blood chemistries and blood cell counts ([2]; 29 mg/kg IP daily): no evidence of liver, renal, pancreas, or bone marrow toxicities
HDL ([2]; vs. D4-Tat): small but significant increases
triglycerides ([2]; vs. D4-Tat): small but significant increases
